Bridge positions count the residues as written; N and C are the ends. Square brackets hold non-standard residues; d marks the D form. Ends that are not written are not given here. * marks the point of attachment. 5‑TAMRA = CN(C)c1ccc2c(-c3ccc(C(=O)*)cc3C(=O)[O-])c3ccc(N(C)C)cc3[o+]c2c1; n3 = azido unnatural amino acid, 3 CH2 in side chain; Lys(N3) = [N-]=[N+]=NCCCC[C@H](N)C(=O)O; Dap(N3) = [N-]=[N+]=NC[C@H](N)C(=O)O; Aha = [N-]=[N+]=NCC[C@H](N)C(=O)O; m3c = not defined here; m3 = not defined here; m4 = not defined here; m5 = not defined here; Ahx = NCCCCCC(=O)O
T1: TNKS2 ARC4 (Homo sapiens, UniProt Q9H2K2)
T1 construct: GST (cleaved yes); made in house; host or cells: E. coli C41(DE3)
T1 sequence (Q9H2K2 488-649): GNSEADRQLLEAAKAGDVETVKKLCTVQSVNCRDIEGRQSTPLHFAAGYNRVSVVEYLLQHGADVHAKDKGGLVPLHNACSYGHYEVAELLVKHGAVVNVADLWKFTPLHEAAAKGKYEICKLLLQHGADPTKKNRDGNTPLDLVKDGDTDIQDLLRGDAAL

T2: human tankyrase 2 ankyrin repeat cluster 4 (TNKS2 ARC4, residues 488-649) (human, UniProt Q9H2K2 488-649)
T2 sequence (looked up): T1 sequence (Q9H2K2 488-649)

T3: human tankyrase 1 ankyrin repeat clusters 2-3 (TNKS1 ARC2-3, residues 315-662) (human, UniProt O95271 315-662)
T3 sequence (looked up): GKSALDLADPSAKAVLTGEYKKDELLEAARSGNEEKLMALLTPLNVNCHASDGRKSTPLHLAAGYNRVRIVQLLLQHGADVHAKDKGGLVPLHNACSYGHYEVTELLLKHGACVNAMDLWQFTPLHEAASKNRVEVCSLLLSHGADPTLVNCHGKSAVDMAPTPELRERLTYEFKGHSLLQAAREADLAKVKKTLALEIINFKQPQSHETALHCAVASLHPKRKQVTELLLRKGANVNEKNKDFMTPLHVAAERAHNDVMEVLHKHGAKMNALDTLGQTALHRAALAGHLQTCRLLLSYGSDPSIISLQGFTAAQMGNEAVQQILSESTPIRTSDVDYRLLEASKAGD

B1: cp2n2m7N (peptide)
chain: Ac-R[Aha]AGDG[Aha]E
modifications: bridge 2-7; not fully specified (bridges)
B2: cp5n4m5 (peptide)
chain: Ac-RE[Lys(N3)]GDGE[Lys(N3)]
modifications: bridge 3-8; not fully specified (bridges)
B3: cp5n4m5c (peptide)
chain: Ac-RE[Lys(N3)]GDGE[Lys(N3)]
modifications: bridge 3-8; not fully specified (bridges)
B4: T-cp4n1m4 (peptide)
chain: {5‑TAMRA-Ahx}-RE[Dap(N3)]GDG[Dap(N3)]E
modifications: triazole 3-7 via m4; reading uncertain
B5: T-cp4n12m3 (peptide)
chain: {5‑TAMRA-Ahx}-RE[Dap(N3)]GDG[Aha]E
modifications: triazole 3-7 via m3; reading uncertain
B6: T-cp4n12m4 (peptide)
chain: {5‑TAMRA-Ahx}-RE[Dap(N3)]GDG[Aha]E
modifications: triazole 3-7 via m4; reading uncertain
B7: T-cp4n12m5 (peptide)
chain: {5‑TAMRA-Ahx}-RE[Dap(N3)]GDG[Aha]E
modifications: triazole 3-7 via m5; reading uncertain
B8: T-cp4n21m3 (peptide)
chain: {5‑TAMRA-Ahx}-RE[Aha]GDG[Dap(N3)]E
modifications: triazole 3-7 via m3; reading uncertain
B9: T-cp4n21m4 (peptide)
chain: {5‑TAMRA-Ahx}-RE[Aha]GDG[Dap(N3)]E
modifications: triazole 3-7 via m4; reading uncertain
B10: T-cp4n21m5 (peptide)
chain: {5‑TAMRA-Ahx}-RE[Aha]GDG[Dap(N3)]E
modifications: triazole 3-7 via m5; reading uncertain
B11: cp2n3m7N (peptide)
chain: Ac-R[n3]AGDG[n3]E
modifications: bridge 2-7; not fully specified (bridges)
B12: T-cp4n23m3c (peptide)
chain: {5‑TAMRA-Ahx}-RE[Aha]GDG[n3]E
modifications: triazole 3-7 via m3c; reading uncertain
B13: T-cp4n23m4 (peptide)
chain: {5‑TAMRA-Ahx}-RE[Aha]GDG[n3]E
modifications: triazole 3-7 via m4; reading uncertain
B14: T-cp4n23m5 (peptide)
chain: {5‑TAMRA-Ahx}-RE[Aha]GDG[n3]E
modifications: triazole 3-7 via m5; reading uncertain
B15: T-cp4n32m3 (peptide)
chain: {5‑TAMRA-Ahx}-RE[n3]GDG[Aha]E
modifications: triazole 3-7 via m3; reading uncertain
B16: T-cp4n32m3c (peptide)
chain: {5‑TAMRA-Ahx}-RE[n3]GDG[Aha]E
modifications: triazole 3-7 via m3c; reading uncertain
B17: cp2n4m5 (peptide)
chain: Ac-R[Lys(N3)]AGDG[Lys(N3)]E
modifications: bridge 2-7; not fully specified (bridges)
B18: T-cp4n32m4 (peptide)
chain: {5‑TAMRA-Ahx}-RE[n3]GDG[Aha]E
modifications: triazole 3-7 via m4; reading uncertain
B19: T-cp4n32m5 (peptide)
chain: {5‑TAMRA-Ahx}-RE[n3]GDG[Aha]E
modifications: triazole 3-7 via m5; reading uncertain
B20: T-cp4n3m3c (peptide)
chain: {5‑TAMRA-Ahx}-RE[n3]GDG[n3]E
modifications: bridge 3-7; not fully specified (bridges)
B21: pep1 (unlabeled linear consensus peptide Ac-REAGDGEE) (peptide)
peptide: Ac-REAGDGEE-NH2
B22: cp2n4m7N (peptide)
chain: Ac-R[Lys(N3)]AGDG[Lys(N3)]E
modifications: bridge 2-7; not fully specified (bridges)
B23: cp4n2m3 (unlabeled) (peptide)
chain: Ac-RE[Aha]GDG[Aha]E-NH2
modifications: triazole 3-7 via m3; reading uncertain
B24: cp4n2m3c (unlabeled) (peptide)
chain: Ac-RE[Aha]GDG[Aha]E-NH2
modifications: bridge 3-7; not fully specified (bridges)
B25: cp3n4m5 (peptide)
chain: Ac-R[Lys(N3)]AGDGE[Lys(N3)]
modifications: bridge 2-8; not fully specified (bridges)
B26: cp3n4m7N (peptide)
chain: Ac-R[Lys(N3)]AGDGE[Lys(N3)]
modifications: bridge 2-8; not fully specified (bridges)
B27: cp4n4m5 (peptide)
chain: Ac-RE[Lys(N3)]GDG[Lys(N3)]E-NH2
modifications: bridge 3-7; not fully specified (bridges)
B28: cp4n4m5c (peptide)
chain: Ac-RE[Lys(N3)]GDG[Lys(N3)]E
modifications: bridge 3-7; not fully specified (bridges)
B29: cp4n4m7N (peptide)
chain: Ac-RE[Lys(N3)]GDG[Lys(N3)]E
modifications: bridge 3-7; not fully specified (bridges)

What was measured:
[1] = target: T1, TNKS2 ARC4; experiment: Direct fluorescence polarization, TNKS2 ARC4; type: binding; settings: TAMRA-labeled peptides; n.d. = not detectable
Procedure: Fluorescence polarization (FP) assays were performed in 96-well half area black microplates (Corning) on a CLARIOstar microplate reader (BMG labtech) using excitation filter 540–20 nm, dichroic mirror LP 566 nm, and emission filter 590–20 nm. All peptides were dissolved in water as stock solutions. For direct FP assays, the stock concentrations of the TAMRA-labeled peptides were determined based on the 5-TAMRA absorbance at 556 nm (extinction coefficient ε = 89,000 M^–1 cm^–1) measured on a NanoDrop 2000 (Thermo Scientific) and verified by amino acid analysis (Department of Biochemistry, University of Cambridge). TNKS2 ARC4 (488–649) or TNKS1 ARC2–3 (315–662) was diluted 2-fold serially in the assay buffer (50 mM HEPES pH 7.5, 300 mM NaCl, 2 mM DTT, 0.05% (v/v) Tween 20) for a 12-point titration curve in triplicate. The diluted TAMRA-labeled peptide (20 nM, 50 μL) was mixed with the serially diluted TNKS2 ARC4 or TNKS1 ARC2–3 (40–0 μM, 50 μL) in each well and incubated for 30 min at 25 °C before the measurement. Data were analyzed on GraphPad Prism 5.0, and the dissociation constant, Kd, was determined using the following equation assuming the ratio between the concentration of the bound and that of the total TAMRA-labeled peptide is proportional to the fluorescence polarization [drawing 1] where FP is the fluorescence polarization, B is the minimum FP, T is the maximum FP, L0 is the total concentration of TAMRA-labeled peptide, P0 is the total concentration of protein, and Kd is the dissociation constant.

[2] = target: T2, human tankyrase 2 ankyrin repeat …; experiment: fluorescence polarisation; competition: unlabeled peptide or Axin1 fragment diluted 2-fold serially against TAMRA-labeled pep1 (20 nM) with TNKS2 ARC4 (3 uM); PBS, 0.05% Tween 20; 30 min, 25 C; settings: both partners purified
[3] = target: T2, human tankyrase 2 ankyrin repeat …; experiment: fluorescence polarisation; direct: TNKS2 ARC4 or TNKS1 ARC2-3 diluted 2-fold serially (40-0 uM, 50 uL) and mixed with TAMRA-labeled peptide (20 nM, 50 uL); 50 mM HEPES pH 7.5, 300 mM NaCl, 2 mM DTT, 0.05% Tween 20; 30 min, 25 C; settings: both partners purified
[4] = target: T2, human tankyrase 2 ankyrin repeat …; experiment: ITC; TNKS2 ARC4 (160-280 uM) or TNKS1 ARC2-3 (60-150 uM) titrated into the cell with unlabeled peptide (5-15 uM) or Axin1 fragment (8-12 uM); PBS, 0.5 mM TCEP; 25 C; one-site model; stoichiometry = TNKS per peptide or Axin1; settings: both partners purified
[5] = target: T3, human tankyrase 1 ankyrin repeat …; experiment: as above; settings: both partners purified

| Molecule | Kd [2] [µM] | Kd [3] [µM] | other results |
| --- | --- | --- | --- |
| cp4n1m3: non-binding cross-linked peptide, REXGDGXE, UAA side chains n=1, linker m3 (RE[Dap(N3)]GDG[Dap(N3)]E; linker 3-7 via m3 (inferred); reading uncertain) |  |  | Kd TNKS2 ARC4 (Direct FP) [1]: nondetectable |
| B1 | 53.3 ± 8.3 |  |  |
| B2 | 7.9 ± 1.2 |  |  |
| B3 | 13.9 ± 2.1 |  |  |
| B4 |  | 61.8 ± 33.9 |  |
| B5 |  | 12.5 ± 0.5 |  |
| B6 |  | 8.9 ± 0.3 |  |
| B7 |  | 7.7 ± 0.3 |  |
| B8 |  | 22.8 ± 1.3 |  |
| B9 |  | 5.8 ± 0.2 |  |
| B10 |  | 13.6 ± 1.1 |  |
| B11 | 14.7 ± 0.8 |  |  |
| B12 |  | 15.5 ± 0.6 |  |
| B13 |  | 1.7 ± 0.05 |  |
| B14 |  | 4.3 ± 0.2 |  |
| B15 |  | 6.1 ± 0.2 |  |
| B16 |  | 15.3 ± 0.6 |  |
| B17 | 14.1 ± 4 |  |  |
| B18 |  | 11.1 ± 0.9 |  |
| B19 |  | 4.2 ± 0.12 |  |
| B20 |  | 15.4 ± 0.6 |  |
| B21 |  |  | Kd [4]: 1.18 ± 0.04 µM; stoichiometry N [4]: 1 ± 0.004; stoichiometry N [5]: 0.9 ± 0.01 |
| B22 | 32.4 ± 1.7 |  |  |
| B23 |  |  | Kd [4]: 0.89 ± 0.04 µM; stoichiometry N [4]: 0.9 ± 0.005; Kd [5]: 0.26 ± 0.03 µM; stoichiometry N [5]: 0.9 ± 0.01 |
| B24 |  |  | Kd [4]: 0.64 ± 0.01 µM; stoichiometry N [4]: 1.1 ± 0.002; Kd [5]: 0.37 ± 0.04 µM; stoichiometry N [5]: 1.1 ± 0.02 |
| B25 | 23.4 ± 4.2 |  |  |
| B26 | 35.5 ± 2.5 |  |  |
| B27 | 2.8 ± 0.1 |  |  |
| B28 | 16.7 ± 2 |  |  |
| B29 | 6.5 ± 0.2 |  |  |
